As a reminder, the IC50 is the concentration at which inhibition is half-maximal.

The results in this text go back to patent publication US20030059862A1 (Human Genome Sciences, published 2003).

First the molecules themselves.
B1: APRIL (Tumor Necrosis Factor Delta), human (ligand)
chain: AVLTQKQKKQHSVLHLVPINATSKDDSDVTEVMWQPALRRGRGLQAQGYGVRIQDAGVYLLYSQVLFQDVTFTMGQVVSREGQGRQETLFRCIRSMPSHPDRAYNSCYSAGVFHLHQGDILSVIIPRARAKLNLSPHGTFLGFVKL
notes: Soluble purified APRIL and FLAG-tagged APRIL were used in the selections; also called TNF-delta; human APRIL

For test [1], the target named is T1, BCMA fusion protein (Homo sapiens (Human), UniProt Q02223 1-48).
T1 construct: also called immobilized receptor
T1 chain: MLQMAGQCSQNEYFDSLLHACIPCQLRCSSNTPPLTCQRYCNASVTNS
The experiment in a line: receptor binding inhibition assay: unlabelled APRIL titrated against bio-APRIL (5 ng/ml, the competitor) for binding to plate-coated BCMA fusion protein; streptavidin Delfia, fluorescence counts. As to the method: (§1) APRIL binds to BCMA with higher affinity than its binds to TACI so, inhibition of biotinylated APRIL (bio-APRIL) binding to BCMA can be used to screen selection outputs as periplasmic extracts for neutralizers and then assess potency of the positives as purified scFvs. To perform this assay, each well of a black 96 well flat-bottomed plate (Costar) was coated with 1.25 ng BCMA fusion protein overnight at 4° C. The wells were blocked with 3% milk in PBS for an hour at room temperature. ScFv were then added in the presence of 5 ng/ml biotinylated APRIL for 90 minutes at room temperature. Binding of biotinylated APRIL was detected via streptavidin Delfia (Wallac) added at a 1:1000 dilution in Delfia assay buffer (Wallac). After an hour at room temperature this was read on a Wallac 1420 workstation at 620 nm.

Test [2] concerns the target T1, BCMA fusion protein. The experiment in a line: Unlabelled APRIL titrated against 5 ng/ml bio-APRIL for binding to coated BCMA fusion protein, streptavidin-DELFIA. As to the method: as §1
Test [3] concerns the target T2, TACI fusion protein (Homo sapiens (Human), UniProt O14836 1-154).
T2 construct: also called immobilized receptor
T2 sequence: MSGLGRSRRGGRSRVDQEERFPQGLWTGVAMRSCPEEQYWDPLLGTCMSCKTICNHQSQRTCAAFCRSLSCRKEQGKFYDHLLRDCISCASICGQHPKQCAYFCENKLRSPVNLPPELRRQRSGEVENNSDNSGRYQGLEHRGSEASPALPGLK
The experiment in a line: Unlabelled APRIL titrated against 50 ng/ml bio-APRIL for binding to coated TACI fusion protein, streptavidin-DELFIA; inhibition was only partial. The procedure:
as §1
(§2) An assay similar to that described above can also be used to test if anti-APRIL antibodies of the invention are able to inhibit binding of bio-APRIL to TACI. In this case, the plate was coated with 2.5 ng TACI fusion protein per well and scFv were added in the presence of 50 ng/ml biotinylated APRIL instead of 5 ng/ml. Otherwise, the method was identical to that for the BCMA:bio-APRIL assay.

Test [4] addresses T2, TACI fusion protein. The test can be described thus: receptor binding inhibition assay: unlabelled APRIL titrated against bio-APRIL (50 ng/ml, the competitor) for binding to plate-coated TACI fusion protein; streptavidin Delfia, fluorescence counts. As to the method: as §1, §2
Test [5] deals with T3, biotinylated APRIL (Homo sapiens (Human), UniProt O75888 105-250, biotinylated using NHS-biotin at a molar ratio of 20:1 biotin:APRIL).
T3 construct: also called bio-APRIL
T3 sequence: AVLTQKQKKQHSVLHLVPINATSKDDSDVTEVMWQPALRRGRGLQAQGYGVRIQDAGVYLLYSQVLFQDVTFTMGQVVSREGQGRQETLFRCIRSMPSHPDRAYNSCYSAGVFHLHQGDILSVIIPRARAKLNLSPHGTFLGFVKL
The experiment in a line: scFv inhibition of bio-APRIL (50 ng/ml) binding to coated TACI fusion protein, streptavidin-DELFIA; partial inhibition; unit cell reads 'nM (1)'. As to the method: as §1, §2

Test [6] has as its target T3, biotinylated APRIL. The test can be described thus: scFv inhibition of bio-APRIL (5 ng/ml) binding to coated BCMA fusion protein, streptavidin-DELFIA; partial inhibition; unit cell reads 'nM (3)'. The procedure: as §1
In test [7] the target is T3, biotinylated APRIL. The test can be described thus: scFv inhibition of bio-APRIL (50 ng/ml) binding to coated TACI fusion protein, streptavidin-DELFIA. The procedure:
as §1, §2

Test [8] concerns the target T3, biotinylated APRIL. The experiment in a line: scFv inhibition of bio-APRIL (5 ng/ml) binding to coated BCMA fusion protein, streptavidin-DELFIA. As to the method: as §1
Test [9] has as its target T3, biotinylated APRIL. The experiment in a line: receptor binding inhibition assay: scFv titrated with bio-APRIL (50 ng/ml); blocked binding of bio-APRIL to plate-coated TACI fusion protein; streptavidin Delfia, fluorescence counts. As to the method: as §1, §2
Test [10] has as its target T3, biotinylated APRIL. The test can be described thus: receptor binding inhibition assay: scFv titrated with bio-APRIL (5 ng/ml); blocked binding of bio-APRIL to plate-coated BCMA fusion protein; streptavidin Delfia, fluorescence counts. As to the method: as §1
The next test concerns the target T4, BSA (UniProt P02769 25-607).
T4 construct: Unrelated control antigen coated at 1 µg/ml in the phage ELISAs
The test can be described thus: Specificity phage ELISA (scFv on phage, anti-M13-HRP, A450). The procedure: (§3) Flexible 96-well plates (Falcon) were coated overnight at 4° C. with each antigen (1 μg/ml). All antigens were coated in PBS. After coating, the solutions were removed from the wells, and the plates were blocked for 1 hour at room temperature in MPBS. The plates were washed 3 times with PBS and then 50 μl of pre-blocked phage was added to each well. The plates were incubated at room temperature for 1 hour and then washed with 3 changes of PBST followed by 3 changes of PBS.
(§4) To each well, 50 μl of an anti-M13-HRP conjugate (Pharmacia) at a 1 in 5000 dilution in MPBS was added and the plates incubated at room temperature for 1 hour. Each plate was washed three times with PBST followed by three times with PBS.
(§5) Fifty μl of TMB substrate was then added to each well, and incubated at room temperature for 30 minutes or until color development. The reaction was stopped by the addition of 25 μl of 0.5 M H₂SO₄. The signal generated was measured by reading the absorbance at 450 nm (A₄₅₀) using a microtitre plate reader (Bio-Rad 3550).
Background: An ELISA detects its analyte on a solid surface through an enzyme-linked reagent.

The target of another test is T5, BCMA (Homo sapiens (Human), UniProt Q02223 1-48, limits assumed).
T5 chain: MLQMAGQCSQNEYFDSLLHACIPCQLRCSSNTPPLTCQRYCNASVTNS
The test is described as above. The procedure: as §3, §4, §5

A further test has as its target T6, TNF-α (Homo sapiens (Human), UniProt P01375 77-233).
T6 construct: also called TNF-alpha
Described as above. As to the method: as §3, §4, §5

A further test addresses T7, LIGHT (Homo sapiens (Human), UniProt O43557 83-240, limits assumed).
T7 chain: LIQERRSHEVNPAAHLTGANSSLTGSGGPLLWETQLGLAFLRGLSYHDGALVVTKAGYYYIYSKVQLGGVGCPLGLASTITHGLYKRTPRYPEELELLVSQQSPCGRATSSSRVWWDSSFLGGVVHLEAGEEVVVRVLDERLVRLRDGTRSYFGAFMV
The test is described as above. As to the method: as §3, §4, §5

The next test addresses T8, BLyS (Homo sapiens (Human), UniProt Q9Y275 134-285).
T8 construct: also called Neutrokine-alpha
The test is described as above. As to the method:
as §3, §4, §5

A further test addresses T9, TACI (Homo sapiens (Human), UniProt O14836 1-154, limits assumed).
T9 sequence: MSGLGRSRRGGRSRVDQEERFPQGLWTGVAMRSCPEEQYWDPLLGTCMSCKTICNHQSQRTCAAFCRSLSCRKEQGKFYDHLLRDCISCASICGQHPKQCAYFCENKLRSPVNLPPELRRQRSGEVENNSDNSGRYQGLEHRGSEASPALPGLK
The description is as above. As to the method: as §3, §4, §5

Test [11] deals with B1. The test can be described thus: Title of Table 1; scFv identified by phage display selection and phage ELISA (Example 1).

T4 sequence (P02769 25-607 limits assumed): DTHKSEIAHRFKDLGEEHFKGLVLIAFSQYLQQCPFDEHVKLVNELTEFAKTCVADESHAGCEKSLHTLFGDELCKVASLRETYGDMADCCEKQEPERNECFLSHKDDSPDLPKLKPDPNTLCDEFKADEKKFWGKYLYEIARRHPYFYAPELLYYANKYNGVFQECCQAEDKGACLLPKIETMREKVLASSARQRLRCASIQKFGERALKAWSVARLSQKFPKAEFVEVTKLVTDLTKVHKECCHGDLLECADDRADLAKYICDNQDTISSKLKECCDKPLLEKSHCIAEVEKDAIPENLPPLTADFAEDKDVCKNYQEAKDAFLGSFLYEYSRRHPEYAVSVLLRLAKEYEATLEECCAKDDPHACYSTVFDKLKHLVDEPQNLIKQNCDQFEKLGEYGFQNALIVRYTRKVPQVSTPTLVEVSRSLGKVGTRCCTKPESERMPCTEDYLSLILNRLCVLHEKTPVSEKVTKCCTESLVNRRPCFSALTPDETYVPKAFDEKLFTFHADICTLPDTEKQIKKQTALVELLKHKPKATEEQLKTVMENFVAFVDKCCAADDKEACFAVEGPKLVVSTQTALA
T6 sequence (P01375 77-233 limits assumed): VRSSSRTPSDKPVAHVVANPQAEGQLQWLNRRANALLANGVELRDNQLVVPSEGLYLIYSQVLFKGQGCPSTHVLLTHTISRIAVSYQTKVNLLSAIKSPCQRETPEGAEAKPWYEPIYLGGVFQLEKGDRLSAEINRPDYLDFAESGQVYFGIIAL
T8 sequence (Q9Y275 134-285 limits assumed): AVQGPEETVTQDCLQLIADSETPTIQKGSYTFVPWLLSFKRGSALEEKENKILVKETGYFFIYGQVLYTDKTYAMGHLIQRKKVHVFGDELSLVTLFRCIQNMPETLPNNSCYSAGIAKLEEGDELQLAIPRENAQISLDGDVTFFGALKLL

Consider B1, for which the IC50 with BCMA fusion protein [1] is 0.043 nM; with BCMA fusion protein [2], 0.048 nM; in the test with TACI fusion protein [3], 1.3 nM; with TACI fusion protein [4], 0.165 nM.

B2: A024G01 (scFv)
scFv: EVQLVQSGAEVKKPGSSVKVSCKASGGTLSSDSITWVRQAPGQGLEWVGGLIPALGTANYAQKFQGRVTMTADRSTGTAYMELRSLKFDDTAVYYCARVSRTSYYDVLTDNNRYSYYMDVWGKGTLVTVSSGGGGSGGGGSGGGGSAHVILTQPPSVSVSPTQTATITCSGDHLGRKSLSWYQQKPGQSPVLVIYEDFKRPSGIPERFSASNSGYTATLTISGTQAMDEADYYCQAWDNRAVVFGGGTKLTVLG
B2: the IC50 was found to be 4 nM in the test with biotinylated APRIL [5] and 19 nM with biotinylated APRIL [6].

B3: A019C11 (scFv)
scFv: EVQLVQSGAEVKKPGASVKVSCKTSGYTFTDNYMHWVRQAPGQGLEWMGWISPNSSTTLYAQKFRGRVTLTRDTSVSTAYMELSGLDSDDTALYFCARGGRLAGSTVFTPAFEYWGRGTMVTVSSGGGGSGGGGSGGGGSAQAVLTQPSSVSEAPRQRVTISCSGSSSNIGNNAVKWYQQLPGKAPKLLIYYDDLLPSGVSDRFSGSKSGTSASLAISGLQSEDEADYYCAAWDDSLNGYVFGTGTKVTVLG
On to B3, for which the IC50 with biotinylated APRIL [7] is 10 nM; with biotinylated APRIL [8] it was 4.3 nM; with biotinylated APRIL [9], 7 nM; in the test with biotinylated APRIL [10], 10 nM. Besides, the binding result with BSA, with BCMA, with TNF-α, with LIGHT, with BLyS and with TACI was “no binding (tested: antigen coated at 1 µg/ml)” in each case.

B4: A027H08 (scFv)
scFv: QVQLQQSGAEVKKPGSSVKVSCKASGGTFSSYAISWVRQTPGQGLEWMGGIIPIFGAANYAQKFQGRVTITADESTSTAHMELSSLRSEDTAVYYCARGISGGMDVWGKGTLVTVSSGGGSGGGGSGGGGSDIQMTQSPSTLSASIGDRVTITCRASEGIYHWLAWYQQKPGKAPKLLIYKASSLASGAPSRFSGSGSGTDFTLTISSLQPDDFATYYCQQYSNYPLTFGGGTKLEIKR
On to B4, for which the binding result in test [11] is “binds”.
